The target in assay [1] is LacI-mCherry-E1A(140–189) (human adenovirus 2) (UniProt P03254).
Assay [2] concerns the target LacI-mCherry-E1A(121–223) (human adenovirus 2) (UniProt P03254). Description: recruitment to a lacO array (colocalisation of a YFP fusion with a LacI-tethered fusion, confocal microscopy); CHO-A03.1 cells with ~10,000 integrated lacO sites, cotransfected with 2 ug LacI-CFP-E1A or LacI-mCherry-E1A vector and 2 ug YFP-MED6, YFP-MED23 or YFP-p300 vector; fixed after 48 h; score = % of scored cells with colocalisation.

Assay [3] has as its target LacI-mCherry-E1A(133–178) (human adenovirus 2) (UniProt P03254). The assay is described as above.
The target of assay [4] is LacI-mCherry-E1A(133–189) (human adenovirus 2) (UniProt P03254). Described as above.
For assay [5], the target named is LacI-mCherry-E1A(133–205) (human adenovirus 2) (UniProt P03254). The assay is described as above.
Assay [6] addresses LacI-mCherry-E1A(140–205) (human adenovirus 2) (UniProt P03254). Described as above.

In assay [1], YFP-p300, Q09472 1-2414 came in with a luciferase reporter with eight lacO sites upstream of the E1B promoter, transient transfection of CHO-K1 cells; activity relative to LacI-mCherry-E1A(121–223) of 10%. Further, the colocalization score (% of cells) in assay [2] amounted to 86%; in assay [3] it was 64%; in assay [4], 86%; in assay [5], 73%; in assay [6], 64%.

The values are drawn from paper PMC6146688.
